Laboratory results from article PMC12772503.

B1: myc-Syd-N2 (Syd^1-529) R492 [Drosophila] / HA-Rab2^Q65L [Drosophila] (parent)
chain 1: MMDNDDALLNNGGPQSGAETVYGTEDNNMVMSEKNEQVVSIVQQLAGSIYQEFERMINRYDEDVVKNLMPLLVNVLECLDASYRINQEQDVEVELLREDNEQLVTQYEREKSARKQSEQKLLEAEDLAEQENKELATRLESVESIVRMLELKHKNSLEHASRLEEREADLKKEYNKLHERYTELFKNHVDYMERTKMLMGSTHSQMSTASERMDVSRARLNPVARSSGPVSYGFASLENSVMLDTETICSVGSQSDDSGPPSLQNELDNLSGTLERGAATDALQQQHHATSPQSPDSSPVVPNVPTNVGRSTTKKEQRSDNNLYQELSFQDNEESEENEIVTGSWVHPGEYASSANDNYFGMGKEVENLIMENNELLATKNALNIVKDDLIVKVDELTGEVEIVREELNAMQQSRTKLRQRISELEDELKKAKEQVKQQNTEQEENDVPLAQRKRFTRVEMAMVLMERNQYKERLMELQEAVRLTEILRASRTVDNLDRKSKQSIWKYFSNLFTPSNRPTERVADGLGG
chain 2: MSYAYLFKYIIIGDTGVGKSCLLLQFTDKRFQPVHDLTIGVEFGARMITIDGKQIKLQIWDTAGLEAFRSITRSYYRGAAGALLVYDITRRETFNHLTTWLEDARQHSNSNMVIMLIGNKSDLDSRREVKKEEGEAFAREHGLVFMETSARTAANVEEAFINTAKEIYEKIQEGVFDINNEANGIKIGQQHSPTNPSLPGAGGAAGAANSGCC

Variants of: B1
Experiment: Co-IP (anti-HA IP, anti-myc immunoblot quantification)
Details: with HA-Rab2^Q65L [Drosophila]; HEK cell lysates; single experiment 1 of 3 (solid line); P < 0.005 vs WT printed; parent: 17; read off a plot

Row | response [a.u.] | Variant
1 | 11 | chain 1 V482A R483A L484A T485A E486A I487A R489A S491A R492A

Same assay, conditions: with HA-Rab2^Q65L [Drosophila]; HEK cell lysates; single experiment 2 of 3 (upper dashed line); P < 0.005 vs WT printed; parent: 17; read off a plot

Row | response [a.u.] | Variant
2 | 6.8 | chain 1 V482A R483A L484A T485A E486A I487A R489A S491A R492A

Same assay, conditions: with HA-Rab2^Q65L [Drosophila]; HEK cell lysates; single experiment 3 of 3 (lower dashed line); P < 0.005 vs WT printed; parent: 17; read off a plot

Row | response [a.u.] | Variant
3 | 4.7 | chain 1 V482A R483A L484A T485A E486A I487A R489A S491A R492A
